Experimental data reported in US12325863B2, “MDA-7/IL-24 secretory variants and methods of use” (Virginia Commonwealth University, priority 2018, dated 2025).

What was measured:
[1] = Sabutoclax and BI-97D6 in combination with MDA-7/IL-24; conditions: combined with MDA-7/IL-24; earlier observation referred to
Description: To test a multi-target approach for treatment of prostate cancer bone metastases, experiments were conducted to target Mcl-1 inhibition and investigate the effects on NG-mda-7/IL-24 efficacy. […] In addition to these inhibitors, three commercially available targeted inhibitors were evaluated to determine potential synergistic effects with MDA-7/IL-24. […] Next, the therapeutic effect of MDA-7/IL-24 protein in combination with BI-97D6 was tested, in male athymic nude mice injected by the intracardiac route with human prostate cancer PC3-ML cells, resulting in bone metastases.

CD11b+Gr-1+ MDSCs = conditions: single administration 5 mg/kg or 20 mg/kg i.p., 24 hours, spleen; FIG. 33
Description: 24 hrs. later, splenic CD11b+Gr-1+ MDSCs were assessed by FACS.
Twenty-four (24) hours later, splenic CD11b^+Gr-1^+ MDSCs were assessed by FACS.

breast cancer cells = experiment: ER stress response and surface calreticulin in breast cancer cells; format: cell-based, mouse
Excerpt: FIGS. 41A-41C show example images illustrating that MDA-7/IL-24 therapy enhances immunogenicity of mouse mammary tumors. FIG. 41A: immunogenic BCa cell death induced by MDA-7/IL-24 therapy. BALB/c mice were immunized with irradiated, Ad.mda-7 (1,2) or Ad.null (3,4) infected 4T1 cells (MOI=1), challenged with live 4T1 cells. The images were taken two weeks' post-tumor challenge. […] FIG. 41C: MDA-7/IL-24 therapy triggers the surface presence of CRT, assessed by immunofluorescence staining (left) and immunoblotting analysis of plasma membrane or cytosolic fractions (right).
Immunogenic breast cancer cell death was induced by MDA-7/IL-24 therapy. BALB/c mice were immunized with irradiated, Ad.mda-7 (mouse 1 and 2) or Ad.null (mouse 3 and 4) infected 4T1 cells (MOI=1), and then challenged with live 4T1 cells. The images were taken two weeks' post-tumor challenge.

[2] = test system: human prostate cancer PC3-ML cells; experiment: PC3-ML intracardiac bone metastasis model in athymic nude mice; format: in vivo; conditions: single agent, versus control group
Description: To test a multi-target approach for treatment of prostate cancer bone metastases, experiments were conducted to target Mcl-1 inhibition and investigate the effects on NG-mda-7/IL-24 efficacy. Using NMR (nuclear magnetic resonance) and computational biology, two Mcl-1 inhibitors were identified (Sabutoclax and BI-97D6) and their activity was validated in immune competent mice in combination with MDA-7/IL-24. In addition to these inhibitors, three commercially available targeted inhibitors were evaluated to determine potential synergistic effects with MDA-7/IL-24. The three inhibitors were UMI-77 (showing selectivity to Mcl-1 over other members of the Bcl-2 family), Marinopyrrole A (selective inhibitor of Mcl-1), and A-1210477. […] Mcl-1 expression was elevated by 1.7-fold in RM1-BM (RM1-BM cells selected for enhanced metastasis to bone) as compared to RM1 cells, indicating functional relevance of Mcl-1 in this metastatic process. […] This further supported the cancer-specificity of specific Mcl-1 inhibitors. Next, the therapeutic effect of MDA-7/IL-24 protein in combination with BI-97D6 was tested, in male athymic nude mice injected by the intracardiac route with human prostate cancer PC3-ML cells, resulting in bone metastases.

CD8+ T cells = experiment: 3H-thymidine incorporation in stimulated CD8+ T cells; format: cell-based; conditions: anti-CD3/CD28 stimulation, 20 ng/ml, p<0.05; FIG. 31A
Description: (§1) FIGS. 31A-31B show example results illustrating that MDA-7/IL-24 promotes T cell expansion and activation. FIG. 31A: CD8+ T cells were stimulated with anti-CD3/CD28 antibodies in the presence or absence of purified MDA-7/IL-24 protein (20 ng/ml). Cell proliferation was measured using ^3H-thymidine (TdR) incorporation assays. p<0.05. FIG. 31B: C57BL/6 mice were injected i.v. with MDA-7/IL-24 protein (10 μg) or PBS. 48 h later, lymph node cells were assessed for IFN-γ-producing CD8+ T cells by intracellular staining.
(§2) In subsequent experiments, CD8^+ T cells were stimulated with anti-CD3/CD28 antibodies in the presence or absence of purified MDA-7/IL-24 protein (20 ng/ml). Cell proliferation was measured using ^3H-thymidine (TdR) incorporation assays. p<0.05. […] C57BL/6 mice were injected intravenously with MDA-7/IL-24 protein (10 μg) or PBS; 48 hours later, lymph node cells were assessed for IFN-γ-producing CD8^+ T cells by intracellular staining.

[3] = test system: prostate cancer bone metastases (RMI-Luc cells); experiment: RM1-Luc bone metastases, OT-I T cells with or without MDA-7/IL-24 protein; format: in vivo, C57BL/6 mice; conditions: OT-I in combination with protein i.v. 5 mg/kg body weight, 3 times; FIG. 29
Description: C57BL/6 mice established with experimental bone metastases via intratibial injection of ovalbumin-positive CaP RM1-Luc cells expressing luciferase were treated with OVA-specific T cells (OT-I) alone or in combination with recombinant MDA-7/IL-24 protein i.v. (5 mg/kg body weight, 3 times). Development of bone lesions was monitored by BLI. Luciferase intensity was quantified and is presented graphically.
C57BL/6 mice established with experimental bone metastases via intra-tibial injection of ovalbumin-positive prostate cancer RMI-Luc cells expressing luciferase were treated with OVA-specific T cells (OT-I) alone or in combination with recombinant MDA-7/IL-24 protein intravenously (5 mg/kg body weight, 3 times). Development of bone lesions was monitored by bioluminescent imaging (BLI) (FIG. 29 left panel). Luciferase intensity was quantified and is presented graphically (FIG. 29 graph).

[4] = test system: IFN-γ-producing CD8+ T cells; experiment: IFN-γ-producing CD8+ T cells in lymph nodes after i.v. protein; format: in vivo, C57BL/6 mice; conditions: 10 μg i.v., 48 hours, lymph node cells; FIG. 31B
Description: as §1, §2

Molecule	antitumor synergy [1]	frequency of CD11b+Gr-1+ MDSCs (CD11b+Gr-1+ MDSCs)	surface calreticulin (immunofluorescence, immunoblotting) (breast cancer cells; FIG. 41C)	ER stress response (breast cancer cells; GRP78/BiP, GRP170, FIG. 41B)	bone metastases [2]	T cell proliferation (3H-thymidine incorporation) (CD8+ T cells)	therapeutic potency of ATT on bone metastases (BLI) [3]	frequency of IFN-γ-expressing CD8+ T cells [4]
Cc1cc2c(C(=O)NC[C@H](C)c3ccccc3)c(O)c(O)cc2c(O)c1-c1c(C)cc2c(C(=O)NC[C@H](C)c3ccccc3)c(O)c(O)cc2c1O [BI-97C1, Sabutoclax]	antitumor synergy	substantially reduced the frequency of CD11b^+Gr-1^+ MDSCs	–	–	–	–	–	–
MDA-7/IL-24: Melanoma differentiation associated gene-7/Interleukin-24, secreted protein of the IL-10 family (protein) QEFHFGPCQVKGVVPQKLWEAFWAVKDTMQAQDNITSARLLQQEVLQNVSDAESCYLVHTLLEFYLKTVFKNYHNRTVEVRTLKSFSTLANNFVLIVSQLQPSQENEMFSIRDSAHRRFLLFRRAFKQLDVEAALTKALGEVDILLTWMQKFYKL	–	–	triggers the surface presence of calreticulin (CRT)	upregulation of ER-resident chaperones	statistically significant inhibition of bone metastases	significantly enhanced the proliferation of T cells	significantly enhanced the therapeutic potency of ATT	increased the frequency of IFN-γ-expressing CD8^+ T cells
